# Assay results published in patent US9744212B2, “Galectin-3C combination therapy for human cancer” (Texas Tech University System, priority 2011, dated 2017).
# B1: Gal-3C: N-terminally truncated human galectin-3 consisting of 143 carboxy-terminal amino acid residues, SEQ ID NO: 1 (protein)
# chain: GAPAGPLIVPYNLPLPGGVVPRMLITILGTVKPNANRIALDFQRGNDVAFHFNPRFNENNRRVIVCNTKLDNNWGREERQSVFPFESGKPFKIQVLVEPDHFKVAVNDAHLLQYNHRVKKLNEISKLGISGDIDITSASYTMI
# How the values were obtained:
# Assay type in all cases: cell-based, human
# [1] = system: U266 MM cells; assay: Chemotaxis of U266 cells toward SDF-1α in transwell chambers; conditions: Gal-3C at 2.0 μg/ml; SDF-1α 100 ng/ml; 4 hours
# Procedure: Chemotaxis of U266 Cells. U266 cells (400×10^3/well) were plated in 100-μl cell culture media with and without Gal-3C (0, 0.4, 2.0, 10, and 20 μg/ml) in the top chambers of 24-well transwell inserts with 8-μm pores. Cell culture media (600 μ ? ) containing the B-cell chemoattractant stromal cell-derived factor (SDF)-1 ? (100 ng/ml; R&D Systems, Minneapolis, Minn., USA) was added to the bottom chamber. After 4 hours, the number of U266 cells in the bottom chamber was counted with a FACScan flow cytometer (flux rate on high, a 2 min acquisition gate, and 200 μs resolution).
# FIG. 2 is a graph of Gal-3C inhibits the chemotaxis of U266 MM cells Gal-3C (0.4, 2, 10, or 20 μg/ml) in bicameral chambers in response to stromal cell-derived factor (SDF)-1α (100 ng/ml). Error bars are ±S.D. and sextuplicate data points are represented (ANOVA with Turkey test P<0.001 for all comparisons to controls). […] Gal-3C at 2.0 μg/m1 inhibited more than 60% of the U266 cell chemotaxis stimulated by the chemokine, SDF-1α. The SDF-1α and its receptor, CXCR4, are regulators of the migration and homing of MM cells to the bone marrow, and possibly may also control egression of MM cells out of the bone marrow (76).
# [2] = system: HUVEC; assay: Vascular endothelial cell viability assay; conditions: 48 h
# Procedure: FIGS. 4A and 4B are graphs of the data from the vascular endothelial cell viability assay. […] The graphs show mean values and error bars represent 95% C.I. **=ANOVA Tukey's post test p<O.Ol. n.s.=not significant. […] Viability was measured as described for the U266 cells. […] Results obtained from the HUVEC viability studies that were run in triplicate are depicted in FIGS. 4A-B, and are presented as a percentage of control (untreated) cells.
# EXAMPLE 3 illustrates Gal-3C inhibits proliferation of MM cells. Cell Proliferation (Viability) Assays. Cell proliferation was assessed with a ViaLight Plus Cell Proliferation and Cytotoxicity BioAssay Kit (Lonza, Walkersville, Md., USA) according to the directions of the manufacturer. In brief, myeloma cells were seeded (8,000 per well) in 50 μL of RPMI-1640 with 10% heat-inactivated FBS (growth medium) in 96-well plates. HUVEC cells were seeded (10,000/well) in 50 μl EGM-2 medium in 96-well plates. Gal-3C (2× concentration) in 50 μL of growth medium was added to triplicate wells and the plate kept at the CO2 incubator at 37° C. for 48 hour. For the ViaLight assay, 50 μL of lysis buffer was added to each well, the plate was incubated for 10 minutes, after which 50 μL of cell lysate from each well was transferred to a solid white Lumitrac-200 plate and 50 μL of reconstituted AMR Plus was added. Luminescence was measured with a 1-s integrated setting in a Berthold luminometer after 2 minutes. With Alamar Blue, 10 μL of reagent was added per well and the plate kept in the CO2 incubator for 4 hours. Fluorescence intensity was measured at 590-nm on a Polarstar Galaxy (BMG Labtech, Cary, N.C.) microplate reader. The blank (growth media with 10 μl Alamar Blue) was subtracted from the raw fluorescence to obtain adjusted fluorescence readings. Triplicate data points were analyzed and the data shown are representative of 3 or more studies.
# [3] = system: NF-kB (serine 529 phosphorylated p65 subunit); assay: Quantification of NF-kappaB activation by flow cytometry in U266 cells; conditions: 48 hours
# Procedure: Quantification of NF-kappaB Activation by Flow Cytometry. For measurement of NF-kB activation, 200×10^3 cells were fixed with 2% PFA in ice-cold PBS for 30 minutes. After removal of PFA, cells were permeabilized with 0.3% saponin in PBS on ice for 15 minutes, then washed and resuspended in 50 μL PBS supplemented with 1% BSA. PE-labeled anti-phosphorylated serine 529 p65 antibody (BD Biosciences, San Jose, Calif., USA) or isotype control (final dilution, 1:20) and allowed to incubate on ice in the dark for 30 minutes. Before flow-cytometric analysis cells were washed 3 times in 1-mL cold PBS with 1% BSA.
# FIG. 8A is a dot-plot of NF-kB activation in U266 cells. After 48 hours in the presence of indicated treatments, the levels of active NF-KB (serine 529 phosphorylated p65 subunit) were evaluated in U266 cells by flow cytometry.
# [4] = system: VEGF; assay: ELISA of VEGF in U266 cell-conditioned medium; conditions: 48-hour culture with 10 μg/mL Gal-3C, 5 nM Bor or both
# Procedure: ELISA of VEGF and bFGF Levels. The levels of VEGF and bFGF were measured by direct ELISA as follows. Flat-bottom 96-well polycarbonate plates were coated at 4° C. with 50 μL/well cell culture supernatants diluted 1:25 in carbonate coating buffer (0.1 M NaHCO3, […]) at 4° C. overnight. Standard curves were obtained with purified recombinant human VEGF and bFGF (both from R&D Systems) serially diluted in coating buffer (10-fold serial dilutions from 1,000 to 0 ng/mL). After removing diluted supernatants or standards, and blocking with PBS supplemented with 1% W/V BSA for 1 hour at room temperature, plates were incubated for 1 hour at room temperature with mouse anti-human VEGF or rabbit anti-human bFGF primary antibodies (2 μg/mL in PBS, 50 μL/well Abeam, Mass., USA). Then, plates were washed twice with PBS with 0.025% V/V Tween-20 (300 μL/well) and incubated at room temperature with anti-mouse or anti-rabbit HRP-labeled secondary antibodies (0.2 μg/mL in PBS, 50 μL/well Abeam, Mass., USA) for 1 hour. The plates were washed thrice with PBS containing 0.025% V/V Tween-20 (300 μL/well), the TMB colorimetric substrate (Thermo Fisher Scientific, Waltham, Mass., USA) was added, and after 5 minutes the absorbance was measured (0.1 s) at 450 nm on a Victor 2 multimodal microplate reader (PerkinElmer, Billerica, Mass., USA). All samples were run in triplicates. […]
molecule,measurement,setting,value
B1,inhibition of U266 cell chemotaxis stimulated by SDF-1α,[1],more than 60%
same,effect on HUVEC viability,"[2]; at the concentration used in the chemotaxis and angiogenesis assays (Gal-3C 2 μg/ml, Bor 1 nM)",did not display significant effects
same,effect on HUVEC viability,[2]; at the highest concentrations,mild effect
same,NF-kB activation (phosphorylated active form),[3],did not have a significant effect
same,VEGF levels in U266 conditioned medium,[4],significantly reduced
